Measurements reported in paper PMC8775250, “Cryo-EM Structure of the Rhodobacter sphaeroides Light-Harvesting 2 Complex at 2.1 Å” (Biochemistry, 2021).
Ends that are not written are not given here.

B1: LH2 α-polypeptide of the Rhodobacter sphaeroides light-harvesting 2 (LH2) complex (natural protein, Rhodobacter sphaeroides 2.4.1, UniProt Q3J144 1-54, looked up)
chain: carboxyl-MTNGKIWLVVKPTVGVPLFLSAAVIASVVIHAAVLTTTTWLPAYYQGSAAVAAE
notes: Met1 is the N-terminus in the structure; nine copies form the inner ring; also called α-apoprotein

Legend:
[1] = biological target: the molecule itself; test: cryo-EM structure; single-particle cryo-EM of the LH2 complex purified from membranes in 20 mM HEPES pH 7.8 with 0.1% LDAO; C9 symmetry imposed; 2.1 Å
[2] = biological target: B1; test: as above; settings: both partners purified

Binder | stoichiometry N [1] | binding result [2]
B1 | 9 | 
LH2 β-polypeptide of the Rhodobacter sphaeroides light-harvesting 2 (LH2) complex (natural protein, Gly51 is the C-terminus; N-terminal, transmembrane and C-terminal regions of 14, 32 and 5 residues; nine copies form the outer ring) not shown | 9 | binds
